Experimental data published in article PMC6754406 (2019).
Positions count from the first letter of the chain named. In names and notes the source's numbering stands. Each block holds one binder with its values, some of them ahead of it. Where no end group is shown, it is not given here. [ ]: non-standard residue; d: D form. pS = N[C@@H](COP(=O)(O)O)C(=O)O

B1: GM130-S25D (phosphomimetic GM130 (1-85) mutant), non-tagged (domain or fragment)
chain: MSEETRQSKLAAAKKKLREYQQRNDPGVPTGAKKKKKIKNGSNPETTTSGGCHSPEDTPKDNAATLQPSDDTVLPGGVPSPGASL
B2: GM130-WT (wild type GM130 N-terminal region, a.a. 1-85), non-tagged (domain or fragment)
chain: B1 chain with D25S
B3: p115-CTD (p115, a.a. 780-930) (domain or fragment)
chain: SARDSEQVAELKQELATLKSQLNSQSVEITKLQTEKQELLQKTEAFAKSVEVQGETETIIATKTTDVEGRLSALLQETKELKNEIKALSEERTAIKEQLDSSNSTIAILQTEKDKLELEITDSKKEQDDLLVLLADQDQKILSLKNKLKDL

Columns and labels:
[1] = molecular target: Importin-α(ΔIBB) (Importin-α lacking the IBB domain, a.a. 70-524) (mouse, UniProt P52293 70-524); assay: ITC; 200 mM NaCl
[2] = molecular target: T1, Importin-α FL (full-length Importin-α), recombinant (human, UniProt P52292 1-529); assay: ITC; phospho-S25
[3] = molecular target: Importin-β, recombinant, non-tagged (human, UniProt Q14974 1-876); assay: ITC; phospho-S25
Sequence of Importin-β, recombinant, non-tagged (Q14974 whole entry): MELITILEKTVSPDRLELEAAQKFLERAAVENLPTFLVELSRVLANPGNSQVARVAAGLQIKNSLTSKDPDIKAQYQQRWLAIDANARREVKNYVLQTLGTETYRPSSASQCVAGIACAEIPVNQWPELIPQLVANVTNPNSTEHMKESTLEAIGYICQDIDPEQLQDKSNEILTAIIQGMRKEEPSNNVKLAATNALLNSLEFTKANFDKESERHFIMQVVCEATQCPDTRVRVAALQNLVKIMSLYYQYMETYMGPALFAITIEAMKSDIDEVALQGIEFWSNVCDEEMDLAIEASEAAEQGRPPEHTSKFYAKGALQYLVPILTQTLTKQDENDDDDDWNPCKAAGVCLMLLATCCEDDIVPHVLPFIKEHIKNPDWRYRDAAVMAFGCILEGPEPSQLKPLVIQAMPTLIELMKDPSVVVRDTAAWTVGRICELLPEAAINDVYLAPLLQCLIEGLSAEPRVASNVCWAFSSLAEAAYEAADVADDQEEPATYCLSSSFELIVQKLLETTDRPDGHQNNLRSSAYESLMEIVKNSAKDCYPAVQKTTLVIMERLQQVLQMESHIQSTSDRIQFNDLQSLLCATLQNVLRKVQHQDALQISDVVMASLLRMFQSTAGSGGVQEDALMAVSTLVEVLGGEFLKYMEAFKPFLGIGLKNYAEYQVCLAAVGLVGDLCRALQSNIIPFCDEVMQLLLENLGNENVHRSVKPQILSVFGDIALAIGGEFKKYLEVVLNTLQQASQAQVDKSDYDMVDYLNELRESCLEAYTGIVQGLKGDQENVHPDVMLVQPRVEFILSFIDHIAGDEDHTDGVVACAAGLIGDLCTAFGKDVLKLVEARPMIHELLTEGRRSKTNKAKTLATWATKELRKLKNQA

[4] = molecular target: B1; assay: ITC
[5] = molecular target: B2; assay: ITC
[6] = molecular target: T1, Importin-α FL (full-length Importin-α), …; assay: ITC

Binder: B1
- Kd [1]: 227 nM

Binder: B2
- Kd [1]: 322 nM

- Kd [2]: 2100 nM
- Kd [3]: 270 nM
Binder: AKKKLREYQQRN[pS]PGVPTGAKKKKKIKN [GM130-NLS phospho-S25 (synthetic peptide with a phosphate moiety on Ser-25 of GM130, a.a. 13-40)]

Binder: B3
- Kd [4]: 985 nM
- Kd [5]: 823 nM

- Kd [6]: 6.9 µM
Binder: AKKKLREYQQRNSPGVPTGAKKKKKIK [GM130-NLS WT peptide]
